The text below walks through data of patent US20160237160A1, “ANTI-TWEAKR ANTIBODIES AND USES THEREOF” (BAYER PHARMA AKTIENGESELLSCHAFT, priority 2013, published 2016).

A value given as a limit tells only on which side of the number the result lay.

Assay [1] deals with T1, TWEAKR protein (TPP-2305) (Homo sapiens, UniProt Q9NP84).
T1 construct: TPP-2305; hTNFRSF12Aaa28-80; Human; 30R-AT080; 168; purchased Fitzgerald Inc 30R-AT080
Kind of assay: Biacore monovalent KD with TWEAKR protein. It counts as binding. To be noted: first order 1:1 binding model. The method, then:
Binding affinities of anti-TWEAKR antibodies were determined by surface plasmon resonance analysis on a Biacore T100 instrument (GE Healthcare Biacore, Inc.). Antibodies were immobilized onto a CM5 sensor chip through an indirect capturing reagent, anti-human IgG(Fc). Reagents from the “Human Antibody Capture Kit” (BR-1008-39, GE Healthcare Biacore, Inc.) were used as described by the manufacturer. Anti-TWEAKR antibodies were injected at a concentration of 10 μg/ml at 10 μl/min for 10 sec.
Sensorgrams were generated after in-line reference cell correction followed by buffer sample subtraction. The dissociation equilibrium constant (KD) was calculated based on the ratio of association (kon) and dissociation rated (koff) constants, obtained by fitting sensorgrams with a first order 1:1 binding model.
Background: Surface plasmon resonance follows binding to a sensor surface in real time, without labels.

Assay [2] has as its target T2, TWEAKR(28-68)-HIS (TPP-1984) (Homo sapiens, UniProt Q9NP84).
T2 construct: Extracellular domain with C-terminal truncation (28-68) fused to HIS6 tag; made in house
Briefly: ELISA with C-terminally truncated TWEAKR ectodomain. The format is binding. To be noted: coating 1 μg/ml; 0.08 and 0.3 μg/ml biotinylated IgG. The method, then: (§1) To analyze for binding, 1 μg/ml of the respective dimeric TWEAKR-Fc construct were coated and, 0.3 μg/ml and 0.08 μg/ml of biotinylated IgG were used as soluble binding partner. Detection was done with Streptavidin-HRP and Amplex-Red substrate. IgGs were biotinylated using an approximately 2-fold molar excess of biotin-LC-NHS (Pierce; Cat. No. 21347) according to manufacturer's instructions and desalted using Zeba desalting columns (Pierce; Cat. No. 89889).
(ELISA stands for enzyme-linked immunosorbent assay.)

Assay [3] deals with T3, TWEAKR(34-68)-Fc fusion protein (TPP-2203) (Homo sapiens, UniProt Q9NP84).
T3 construct: the truncated ectodomain 34-68 were expressed and purified as Fc fusion proteins; made in house
Kind of assay: ELISA with TWEAKR cysteine rich domain. To be noted: coating 1 μg/ml; 0.08 and 0.3 μg/ml biotinylated IgG. It counts as binding.
Text: (§2) In a first approach to characterize the binding epitope of the aforementioned antibodies, a N- and C-terminal truncation mutant of the TWEAKR ectodomain was generated and tested for its ability to bind to the different anti-TWEAKR antibodies. N-terminally, amino acids 28 to 33 and C-terminally amino acids 69 to 80 were deleted, thus the cysteine rich domain with disulfide bridges between Cys36-Cys49, Cys52-Cys67 and Cys55-Cys64 remains intact (compare FIG. 2). Both constructs, the full ectodomain 28-80 including the N- and C-terminus and the truncated ectodomain 34-68 were expressed and purified as Fc fusion proteins TPP-2202 and TPP-2203, respectively.
as §1

Assay [4] addresses T4, TWEAKR-Fc mutein T33Q (TPP-1986) (Homo sapiens, UniProt Q9NP84, T33Q).
T4 construct: the full ectodomain (amino acids 28-80) with the following single amino acid substitutions; made in house
Briefly: ELISA mutein binding. To be noted: coating 62 ng/ml; biotinylated IgG from 100 nM; read-out: IC50 of antibody binding, T33Q. The method, then:
(§3) Therefore, the full ectodomain (amino acids 28-80) with the following single amino acid substitutions were expressed and purified as Fc fusion proteins: T33Q; S40R; W42A; M50A; R56P; H60K; L65Q.
(§4) To collect dose-response data, the different TWEAKR-Fc muteins were coated with a low concentration (62 ng/ml) in a 384-well Maxisorb ELISA plate and a serial 2fold dilution of biotinylated IgG starting with a concentration of 100 nM was used as soluble binding partner. Detection was done with Streptavidin-HRP and Amplex Red.
(§5) IgGs were biotinylated using an approximately 2-fold molar excess of biotin-LC-NHS (Pierce; Cat. No. 21347) according to manufacturer's instructions and desalted using Zeba desalting columns (Pierce; Cat. No. 89889). The dose-response data were fitted and IC50s determined.

Assay [5] addresses T5, TWEAKR-Fc mutein R56P (TPP-2683) (Homo sapiens, UniProt Q9NP84, R56P).
T5 construct: the full ectodomain (amino acids 28-80) with the following single amino acid substitutions; made in house
Briefly: ELISA mutein binding. The note with it: coating 62 ng/ml; biotinylated IgG from 100 nM; read-out: IC50 of antibody binding, R56P. The method, then:
as §3, §4, §5

The target in assay [6] is T6, TWEAKR-Fc mutein S40R (TPP-1987) (Homo sapiens, UniProt Q9NP84, S40R).
T6 construct: the full ectodomain (amino acids 28-80) with the following single amino acid substitutions; made in house
Briefly: ELISA mutein binding. To be noted: coating 62 ng/ml; biotinylated IgG from 100 nM; read-out: IC50 of antibody binding, S40R. The method, then: as §3, §4, §5

Assay [7] addresses T7, TWEAKR-Fc mutein W42A (TPP-1985) (Homo sapiens, UniProt Q9NP84, W42A).
T7 construct: the full ectodomain (amino acids 28-80) with the following single amino acid substitutions; made in house
Briefly: ELISA mutein binding. To be noted: coating 62 ng/ml; biotinylated IgG from 100 nM; read-out: IC50 of antibody binding, W42A. The method, then:
as §3, §4, §5

For assay [8], the target named is T8, TWEAKR-Fc mutein L65Q (TPP-1990) (Homo sapiens, UniProt Q9NP84, L65Q).
T8 construct: the full ectodomain (amino acids 28-80) with the following single amino acid substitutions; made in house
Kind of assay: ELISA mutein binding. The note with it: coating 62 ng/ml; biotinylated IgG from 100 nM; read-out: IC50 of antibody binding, L65Q. The method, then:
as §3, §4, §5

The target of assay [9] is T9, TWEAKR-Fc mutein H60K (TPP-1989) (Homo sapiens, UniProt Q9NP84, H60K).
T9 construct: the full ectodomain (amino acids 28-80) with the following single amino acid substitutions; made in house
Briefly: ELISA mutein binding. To be noted: coating 62 ng/ml; biotinylated IgG from 100 nM; read-out: IC50 of antibody binding, H60K. The method, then:
as §3, §4, §5

Assay [10] deals with T10, TWEAKR-Fc mutein M50A (TPP-1988) (Homo sapiens, UniProt Q9NP84, M50A).
T10 construct: the full ectodomain (amino acids 28-80) with the following single amino acid substitutions; made in house
Briefly: ELISA mutein binding. The note with it: coating 62 ng/ml; biotinylated IgG from 100 nM; read-out: IC50 of antibody binding, M50A. The method, then:
as §3, §4, §5

For a further assay, the target named is T11, TWEAKR-Fc WT (TPP-599) (Homo sapiens, UniProt Q9NP84).
T11 construct: TPP-599; HUMAN-TNFRSF12Aaa28-80-hIgG1-Fc; 138; made in house
Briefly: ELISA mutein binding. To be noted: coating 62 ng/ml; biotinylated IgG from 100 nM; read-out: IC50 of antibody binding, WT. The method, then: as §3, §4, §5

Assay [11] deals with T12, TWEAKR-Fc fusion protein (TPP-2202), aa 28-80 (Homo sapiens, UniProt Q9NP84).
T12 construct: the full ectodomain 28-80 including the N- and C-terminus; made in house
Briefly: ELISA with TWEAKR full ectodomain. It counts as binding. To be noted: coating 1 μg/ml; 0.08 and 0.3 μg/ml biotinylated IgG.
Text: as §2, §1

B1: P3G5(TPP-2195): reference anti-TWEAKR antibody, murine IgG2a, from WO2009/140177; SEQ ID NO 121/122 (protein)
light: DIVLTQSPASLAVSLGQRATISCRANKSVSTSSYSYMHWYQQKPGQPPKLLIKYASNLESGVPARFSGSGSGTDFILNIHPVEEEDAATYYCQHSRELPFTFGSGTKLEIKRADAAPTVSIFPPSSEQLTSGGASVVCFLNNFYPKDINVKWKIDGSERQNGVLNSWTDQDSKDSTYSMSSTLTLTKDEYERHNSYTCEATHKTSTSPIVKSFNRNEC
heavy: QVQLQQSGPEVVRPGVSVKISCKGSGYTFTDYGIHWVKQSHAKSLEWIGVISTYNGYTNYNQKFKGKATMTVDKSSSTAYMELARLTSEDSAIYYCARAYYGNLYYAMDYWGQGTSVTVSSAKTTAPSVYPLAPVCGDTTGSSVTLGCLVKGYFPEPVTLTWNSGSLSSGVHTFPAVLQSDLYTLSSSVTVTSSTWPSQSITCNVAHPASSTKVDKKIEPRGPTIKPCPPCKCPAPNLLGGPSVFIFPPKIKDVLMISLSPIVTCVVVDVSEDDPDVQISWFVNNVEVHTAQTQTHREDYNSTLRVVSALPIQHQDWMSGKEFKCKVNNKDLPAPIERTISKPKGSVRAPQVYVLPPPEEEMTKKQVTLTCMVTDFMPEDIYVEWTNNGKTELNYKNTEPVLDSDGSYFMYSKLRVEKKNWVERNSYSCSVVHEGLHNHHTTKSFSRTPG
modifications: Mus Musculus
In the case of B1, the ka in assay [1] was 2.31e+06 M⁻¹ s⁻¹. This molecule also displayed a kd in assay [1] of 0.00122 s⁻¹. In assay [2], the “ELISA binding to C-terminally truncated ectodomain (28-68)” value is “impaired binding”. Further, the “ELISA binding to N- and C-terminally truncated construct (34-68)” value in assay [3] is reported as “impaired binding”. Moreover, the 50% inhibitory concentration (IC50) in assay [4] was 1 to 150 pM; in assay [5], 1 to 150 pM; in [6], 1 to 150 pM; in assay [7], greater than 50000 pM; in assay [8], 1 to 150 pM; in assay [9], 1 to 150 pM. Moreover, the IC50 (in assay [10]; with TWEAKR-Fc WT (TPP-599)) was 1 to 150 pM in each case. The “ELISA binding to full ectodomain (28-80)” value in assay [11] is “saturated binding”.

By IC50 is commonly meant the concentration needed to halve the response being measured.
